PMC10570696, “DNA-translocation-independent role of INO80 remodeler in DNA damage repairs” (The Journal of Biological Chemistry, 2023)

Tests used:
INO80-C ΔN sub-complex = biological target: T1, INO80-C ΔN sub-complex (Saccharomyces cerevisiae, UniProt P53115); test: NADH-coupled ATPase assay (pyruvate kinase / lactate dehydrogenase), absorbance at […] nm; type: biochemical; conditions: nucleosome-stimulated (0-320 nM 0N80 mononucleosomes, Xenopus laevis histones); 80 nM complex; 1 mM ATP (2 mM stated elsewhere in the source); 2 mM MgCl2, 50 mM NaCl, pH 8, 30 °C
T1 construct: ten-subunit sub-complex; Ino80 truncated (residues 470-1490, printed 'residue 470 from 1490') with C-terminal Twin-Strep tag; MultiBac baculovirus, High Five insect cells; with Actin-related protein 5; Chromatin-remodeling complex subunit IES6; Ino eighty subunit 2; RuvB-like protein 1; RuvB-like protein 2; Actin-related protein 4; Actin-like protein ARP8; Actin; Ino eighty subunit 4

[1] = biological target: human APE1 endonuclease (AP-endonuclease 1) (human) (UniProt P27695)
[2] = biological target: human APE1 endonuclease (AP-endonuclease 1) (human) (UniProt P27695); remark: listed apart in the source

human APE1 endonuclease (AP-endonuclease 1) (human), sequence (P27695 whole entry): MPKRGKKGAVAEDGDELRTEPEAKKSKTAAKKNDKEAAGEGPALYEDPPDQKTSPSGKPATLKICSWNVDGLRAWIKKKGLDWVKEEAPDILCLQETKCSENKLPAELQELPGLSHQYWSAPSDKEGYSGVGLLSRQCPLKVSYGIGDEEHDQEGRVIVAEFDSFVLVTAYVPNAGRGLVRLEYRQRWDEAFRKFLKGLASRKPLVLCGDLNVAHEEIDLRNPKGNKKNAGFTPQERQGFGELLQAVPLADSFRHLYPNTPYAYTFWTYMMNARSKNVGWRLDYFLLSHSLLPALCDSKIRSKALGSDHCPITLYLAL

APE1 incision assay: percent of dTHF(SHL-6) nucleosomes (100 nM) cleaved over 30 min by 5 nM APE1 with 25 nM INO80-C, with ATP (approximately 40% with APE1 alone) [1] [%]	APE1 incision assay after pre-treatment of the APE1-INO80-C mixture at 37 °C for 20 min, with ATP: proportion of incised nucleosomes [2] [%]	Compound	NADH-coupled ATPase assay (pyruvate kinase / lactate dehydrogenase), absorbance (INO80-C ΔN sub-complex)
–	–	Nc1ncnc2c1ncn2[C@@H]1O[C@H](COP(=O)(O)OP(=O)(O)OP(=O)(O)O)[C@@H](O)[C@H]1O [ATP]	conducted measurements of nucleosome-stimulated ATPase activity of INO80-C ΔN through a NADH+-coupled assay
56	70	endogenous yeast INO80-C complex (from UniProt P53115 1-1489; P53946 1-755; P32617 1-166; P40154 1-320; Q03940 1-463; Q12464 1-471; P80428 1-489; Q12386 1-881; P60010 1-375; Q08561 1-116; P35189 1-244; Q03435 1-203; P43579 1-692; Q12345 1-250; P40060 1-125)	–
